Target: antigen- and TRAIL receptor-expressing Colo205 cells
Experiment: flow cytometry, Colo205 cells

EC50 | Binder
0.58 nM | scFvhu225-EHD2-scTRAIL3-… (protein) DYKDDDDKGGGGSGTEVQLVESGGGLVQPGGSLRLSCAASGFSLTNYGVHWVRQAPGKGLEWLGVIWSGGNTDYNTPFTSRFTISRDNSKNTLYLQMNSLRAEDTAVYYCARALTYYDYEFAYWGQGTTVTVSSGGGGSGGGGSGGGGSDIQLTQSPSFLSASVGDRVTITCRASQSIGTNIHWYQQKPGKAPKLLIKYASESISGVPSRFSGSGSGTEFTLTISSLQPEDFATYYCQQNNNWPTTFGAGTKLEIKRAAAGGSGGDFTPPTVKILQSSCDGGGHFPPTIQLLCLVSGYTPGTINITWLEDGQVMDVDLSTASTTQEGELASTQSELTLSQKHWLSDRTYTCQVTYQGHTFEDSTKKCADSNGGSGGASSGGGPQRVAAHITGTRGRSNTLSSPNSKNEKALGRKINSWESSRSGHSFLSNLHLRNGELVIHEKGFYYIYSQTYFRFQEEIKENTKNDKQMVQYIYKYTSYPDPILLMKSARNSCWSKDAEYGLYSIYQGGIFELKENDRIFVSVTNEHLIDMDHEASFFGAFLVGGGPQRVAAHITGTRGRSNTLSSPNSKNEKALGRKINSWESSRSGHSFLSNLHLRNGELVIHEKGFYYIYSQTYFRFQEEIKENTKNDKQMVQYIYKYTSYPDPILLMKSARNSCWSKDAEYGLYSIYQGGIFELKENDRIFVSVTNEHLIDMDHEASFFGAFLVGGGPQRVAAHITGTRGRSNTLSSPNSKNEKALGRKINSWESSRSGHSFLSNLHLRNGELVIHEKGFYYIYSQTYFRFQEEIKENTKNDKQMVQYIYKYTSYPDPILLMKSARNSCWSKDAEYGLYSIYQGGIFELKENDRIFVSVTNEHLIDMDHEASFFGAFLVG
32.5 nM | dsDb3M6-scTRAIL3-… (protein) DYKDDDDKGGGGSGTEVQLLESGGGLVQPGGSLRLSCAASGFTFSHYVMAWVRQAPGKCLEWVSSISSSGGWTLYADSVKGRFTISRDNSKNTLYLQMNSLRAEDTAVYYCTRGLKMATIFDYWGQGTLVTVSSGGGGSQSALTQPASVSGSPGQSITISCTGTSSDVGSYNVVSWYQQHPGKAPKLIIYEVSQRPSGVSNRFSGSKSGNTASLTISGLQTEDEADYYCSSYAGSSIFVIFGCGTKVTVLAAAGGSGGGPQRVAAHITGTRGRSNTLSSPNSKNEKALGRKINSWESSRSGHSFLSNLHLRNGELVIHEKGFYYIYSQTYFRFQEEIKENTKNDKQMVQYIYKYTSYPDPILLMKSARNSCWSKDAEYGLYSIYQGGIFELKENDRIFVSVTNEHLIDMDHEASFFGAFLVGGGPQRVAAHITGTRGRSNTLSSPNSKNEKALGRKINSWESSRSGHSFLSNLHLRNGELVIHEKGFYYIYSQTYFRFQEEIKENTKNDKQMVQYIYKYTSYPDPILLMKSARNSCWSKDAEYGLYSIYQGGIFELKENDRIFVSVTNEHLIDMDHEASFFGAFLVGGGPQRVAAHITGTRGRSNTLSSPNSKNEKALGRKINSWESSRSGHSFLSNLHLRNGELVIHEKGFYYIYSQTYFRFQEEIKENTKNDKQMVQYIYKYTSYPDPILLMKSARNSCWSKDAEYGLYSIYQGGIFELKENDRIFVSVTNEHLIDMDHEASFFGAFLVG

Source: patent publication US20180094059A1
